Assay results from US8962263B2, “Methods and compositions for detecting the activation state of multiple proteins in single cells” (The Board of Trustees of the Leland Stanford Junior …, priority 2001, dated 2015).
Like-named read-outs stand apart in the source and are kept apart here.

How the values were obtained:
LFA-1 [1] = test: LFA-1 activation by mAb24-Alexa633 staining, flow cytometry; type: cell-based, human; conditions: Jurkat cells, agents 10 μM 30 min, PMA 1 μg/ml, prior to ICAM-2 10 μg/ml 30 min
Procedure: A) Confocal microscopy of actin and microtubule architecture upon ICAM-2, stimulus (10, μg/ml, 30, min) in Jurkat cells. Actin was stained by phalloidin-alexa633, and tubulin by taxol-alexa546. Inserts display enlarged cell image of representative treatment B) Flow cytometric staining for actin and microtubules as described above. C) Left: Fluorescence topography analysis of ICAM-2-FITC (1 μg/ml, time as indicated) surface distribution. Intensity color gradient depicts high and low fluorescent intensity values. Right: Confocal microscopy of ICAM-2-FITC surface binding (10 μg/ml, 30, min) and anti-β2-alexa568, (clone CTB104). D) Staining for ICAM-2-FITC surface binding (fluorescence intensity) and surface distribution (fluorescence pulse) in cytochalisin D treated Jurkat cells at 37° C. and 4° C. by flow cytometry. E) Values for ICAM-2-FITC fluorescence intensity per time-of-flight per cell as described in text. F) Flow cytometric staining for LFA-1 activation by mAb24-alexa633. Stimuli as indicated (10, μM, 30, min), PMA (1, μg/ml) prior to ICAM-2, stimulation (10, μg/ml, 30, min). Staining was performed at 37° C. G) Mean fluorescence intensity (MFI) values of mAb24-633, and ICAM-2, cluster values, computed as described above, as a function of time.
Intracellular and extracellular staining was performed as described (Perez and Nolan, 2002). Intracellular probes for active kinases were made by conjugating phospho-specific antibodies to the ALEXA FLUOR® dye series as described and used in phospho-protein optimized conditions (Perez and Nolan, 2002). Kinetic analyses was performed by direct application of fixation buffer in time synchronized 96-wells maintained at 37° C. Intracellular actin and microtubule staining was performed using phalloidin-Alexa633 and taxol-Alexa546 dyes (Molecular Probes). Adhesion and clustering assays were performed using ICAM-2-FITC as described in text. LFA-1 activation was assessed by either mAb24-Alexa633 or mAb24-Alexa546 conjugate, surface stained at 37° C. Flow cytometry data are representative of 3 independent experiments of 10^6 cells/sample. 10-50,000 events were collected and manually calibrated on a FACSCalibur™ machine. Data plotted in bar graph format is expressed as geometric mean fluorescence intensity (MFI) and normalized for isotype controls. Log ratios are defined as the MFI of stimulus to the MFI of unstimulated cells. Data was analyzed using Flowjo™ software (Treestar).

cell surface LFA-1 = biological target: T1, cell surface LFA-1 (Homo sapiens, UniProt P20701); test: ICAM-2-FITC surface binding on Jurkat cells by flow cytometry (single cell binding measurements)
T1 construct: within the physiological context of cell surface LFA-1; endogenous in cells; host or cells: Jurkat T cells
Procedure: A) Purified human ICAM-2, from retrovirally transduced NIH3T3, (see materials and methods) was tested for purity, size, and aggregate formation by native gel electrophoresis and gel filtration. Analysis of purified ICAM-2, from two different preps and ICAM2-FC from NSO cells. Molecular weight was calculated using relative distance migration from a molecular weight standard. Concentration was determined using serial dilutions of BSA as a standard. […] B) ICAM-2, ligand binding to cell surface as a function of time. 5×10^6, unstimulated and PMA stimulated (1, μg/ml, 30, min) Jurkat T cells were incubated with ICAM-2-FITC or LFA-1-FITC antibody (1, μg/ml) and subjected to time dependent flow cytometry. Mean fluorescence intensity was plotted per time of a gated homogenous cell population. Flow rate was maintained at 200-300, cells/second, with fluorescence intensity values acquired at 10, millisecond intervals for 1200, seconds. C) Flow cytometric analysis of ICAM-2-FITC and a-LFA-1-FITC surface binding on cytochalisin D treated (10, μM, 30, min) Jurkat cells at 37° C. and 4° C. D) Curve fit analysis of ICAM-2-FITC binding per 10^4, cells. Jurkat cells were incubated with ICAM-2-FITC at 37° C. for 30, min at indicated concentrations in 50, μL volume. Cells were washed 1×, and analyzed for mean fluorescent intensity (MFI) of 10^4, cells. Percent ICAM-2-FITC bound was calculated from the following equation: 100×[(MFI[×]−MFIunstained)/(MFI[saturated]−MFIunstained)] where [×]=ICAM-2-FITC concentration and [saturated]=concentration that saturated binding. Values were fit to the equation Y=m1*M0/(m2+M0) (see materials and methods).
Full length ICAM2 cDNA was obtained from Jurkat cells and cloned into retroviral vector PBM-Z-IN at the BamHI/Sal1 site as described (Perez et al., 2002). Human ICAM-2 was overexpressed in NIH3T3 cells by retroviral infection and harvested by immunoaffinity chromatography. ICAM-2 was affinity purified using a two step lysing procedure and subsequent purification on an anti-ICAM-2 solid support. […] Batch lysate of harvested supernatant was performed (4° C., for 2 hrs), and washed 4 times in buffer C (0.1% Tween-20, PBS pH 7.4). ICAM-2 protein was eluted by 4.5 M NaCl (in Tris pH 6.8), dialyzed overnight (in PBS pH 7.4, 0.001% azide, 0.01% glycerol, 4° C.), concentrated using size exclusion spin chromatography and stabilized using 0.01% glycerol. Anti-ICAM-2 solid support was re-equilibrated in buffer C, stored in 0.001% thimerosol and re-used up to 3 times. Purity was >98% as assessed by coomasie gel. […] Gel imaging was performed on a VersaDoc machine (Biorad) and analyzed using Quantity One quantitation software (Biorad). […]

LFA-1 [2] = biological target: LFA-1 (Homo sapiens, UniProt P20701); conditions: cited from earlier work
LFA-1 (Homo sapiens, UniProt P20701), sequence (P20701 26-1170): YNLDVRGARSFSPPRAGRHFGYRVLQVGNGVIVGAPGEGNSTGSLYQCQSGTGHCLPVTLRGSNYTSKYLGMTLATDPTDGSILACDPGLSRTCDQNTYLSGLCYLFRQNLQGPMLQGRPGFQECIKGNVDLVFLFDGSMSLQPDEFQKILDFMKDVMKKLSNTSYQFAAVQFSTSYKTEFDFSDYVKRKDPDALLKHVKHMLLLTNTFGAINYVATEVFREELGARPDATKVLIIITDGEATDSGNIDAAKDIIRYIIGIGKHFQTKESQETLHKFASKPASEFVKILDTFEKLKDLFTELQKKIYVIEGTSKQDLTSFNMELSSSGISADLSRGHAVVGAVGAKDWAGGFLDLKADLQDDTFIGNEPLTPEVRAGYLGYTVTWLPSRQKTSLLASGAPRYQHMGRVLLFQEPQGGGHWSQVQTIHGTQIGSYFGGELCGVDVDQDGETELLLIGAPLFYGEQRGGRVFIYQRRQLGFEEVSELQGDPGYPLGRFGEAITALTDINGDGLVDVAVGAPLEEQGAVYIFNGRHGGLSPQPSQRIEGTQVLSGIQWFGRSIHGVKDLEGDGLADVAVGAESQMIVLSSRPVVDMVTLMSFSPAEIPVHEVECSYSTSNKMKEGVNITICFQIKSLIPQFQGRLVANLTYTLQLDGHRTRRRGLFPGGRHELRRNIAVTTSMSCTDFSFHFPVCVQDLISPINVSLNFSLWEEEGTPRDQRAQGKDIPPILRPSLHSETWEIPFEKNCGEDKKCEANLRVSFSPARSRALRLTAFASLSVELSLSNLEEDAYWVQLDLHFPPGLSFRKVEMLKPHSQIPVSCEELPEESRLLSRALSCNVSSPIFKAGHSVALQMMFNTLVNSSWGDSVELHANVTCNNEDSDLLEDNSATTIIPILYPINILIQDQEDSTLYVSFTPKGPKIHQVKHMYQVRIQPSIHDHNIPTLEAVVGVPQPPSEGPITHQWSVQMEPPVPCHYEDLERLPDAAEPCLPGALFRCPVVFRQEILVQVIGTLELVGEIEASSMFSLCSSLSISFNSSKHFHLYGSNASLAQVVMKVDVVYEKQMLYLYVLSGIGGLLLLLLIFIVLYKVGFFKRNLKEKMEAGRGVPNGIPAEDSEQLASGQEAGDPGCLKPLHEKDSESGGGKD
LFA-1 (Homo sapiens, UniProt P20701), sequence (P05107 23-769 partner): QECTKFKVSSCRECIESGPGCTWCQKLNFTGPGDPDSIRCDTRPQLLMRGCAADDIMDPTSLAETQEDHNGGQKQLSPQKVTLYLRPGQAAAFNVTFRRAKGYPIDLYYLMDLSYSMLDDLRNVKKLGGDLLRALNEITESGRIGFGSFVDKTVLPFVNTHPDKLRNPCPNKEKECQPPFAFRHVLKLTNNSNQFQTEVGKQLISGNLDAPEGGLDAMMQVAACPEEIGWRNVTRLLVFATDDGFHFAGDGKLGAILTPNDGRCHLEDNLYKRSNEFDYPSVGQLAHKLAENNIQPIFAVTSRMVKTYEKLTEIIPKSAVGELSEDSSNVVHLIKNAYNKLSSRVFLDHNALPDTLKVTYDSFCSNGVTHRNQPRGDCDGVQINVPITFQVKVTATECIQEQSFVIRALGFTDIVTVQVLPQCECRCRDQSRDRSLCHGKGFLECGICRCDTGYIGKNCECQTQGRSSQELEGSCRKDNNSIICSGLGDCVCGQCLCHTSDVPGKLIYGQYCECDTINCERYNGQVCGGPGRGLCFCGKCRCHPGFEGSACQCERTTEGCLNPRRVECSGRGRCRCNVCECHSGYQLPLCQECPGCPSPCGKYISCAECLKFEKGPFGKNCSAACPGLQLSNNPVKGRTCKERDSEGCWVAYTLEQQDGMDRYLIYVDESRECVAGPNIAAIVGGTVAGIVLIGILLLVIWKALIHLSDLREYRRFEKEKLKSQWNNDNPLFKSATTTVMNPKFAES

T1 sequence (P20701 26-1170): as the sequence (P20701 26-1170) above
T1 sequence (P05107 23-769 partner): as the sequence (P05107 23-769 partner) above

Row | Molecule | LFA-1 activation (mAb24 binding) (LFA-1 [1]) | ICAM-2 adhesion measured by binding of ICAM-2-FITC (cell surface LFA-1; PKC inhibitor treated cells) | LFA-1 activation (mAb24 binding) (LFA-1 [1]; listed as full length ICAM-2) | concentration inducing LFA-1 mediated adhesion (LFA-1 [2]; bulk cellular adhesion assay) [µM] | fold lower ICAM-2 soluble protein concentration compared with P1 (LFA-1 [2]) [fold] | Kd (cell surface LFA-1; Jurkat cells, 37° C., 30 min, curve fit analysis, read-out: dissociation constant of ICAM-2-FITC binding) [nM] | Kd (cell surface LFA-1; per 10^4 cells, read-out: calculated ICAM-2 affinity) [nM]
1 | CN(C)CCCn1cc(C2=C(c3c[nH]c4ccccc34)C(=O)NC2=O)c2ccccc21 [bisindolymaleimide I] | inhibited ICAM-2 induced LFA-1 activation | not affected |  |  |  |  | 
2 | ICAM-2: biochemically purified soluble human ICAM-2 protein from retrovirally transduced NIH3T3 cells; ICAM-2-FC fusion also used (protein, UniProt P13598 25-223, looked up, extracellular domain, biochemically purified soluble human ICAM-2 protein from retrovirally transduced NIH3T3 cells; ICAM-2-FC fusion also used) extracellular domain: KVFEVHVRPKKLAVEPKGSLEVNCSTTCNQPEVGGLETSLDKILLDEQAQWKHYLVSNISHDTVLQCHFTCSGKQESMNSNVSVYQPPRQVILTLQPTLVAVGKSFTIECRVPTVEPLDSLTLFLFRGNETLHYETFGKAAPAPQEATATFNSTADREDGHRNFSCLAVLDLMSRGGNIFHKHSAPKMLEIYEPVSDSQ | bimodal population in active LFA-1 |  | resulted in active LFA-1 | 1.3 | 48 | 210 ± 70 | 217 ± 66
